Data published in the Human Domainome abundance scans (Beltran et al. 2025).
± gives the uncertainty stated by the source.

B1: Myocardin-related transcription factor A, residues 341 to 383; numbered along this chain, Q969V6 (parent)
chain: GALPANLDDMKVAELKQELKLRSLPVSGTKTELIERLRAYQDQ

Variants of: B1
Assay: abundance fitness (aPCA) (normalised: wild type 0, dead -1); higher = more abundant; growth selection in yeast, the domain comes from the species named
Conditions: Homo sapiens
With GALPNNLDDMKVAELKQELKLRSLPVSGTKTELIERLRAYQDQ [A5N] the abundance fitness was 0.215 ± 0.088. In the case of GALPPNLDDMKVAELKQELKLRSLPVSGTKTELIERLRAYQDQ [A5P], the abundance fitness is reported as -0.845 ± 0.077. Variant GALPQNLDDMKVAELKQELKLRSLPVSGTKTELIERLRAYQDQ [A5Q] has an abundance fitness of -0.025 ± 0.099. In the case of GALPRNLDDMKVAELKQELKLRSLPVSGTKTELIERLRAYQDQ [A5R], the abundance fitness is reported as 0.064 ± 0.068. GALPSNLDDMKVAELKQELKLRSLPVSGTKTELIERLRAYQDQ [A5S] showed an abundance fitness of -0.107 ± 0.073. With GALPTNLDDMKVAELKQELKLRSLPVSGTKTELIERLRAYQDQ [A5T] the abundance fitness was 0.185 ± 0.069. In the case of GALPWNLDDMKVAELKQELKLRSLPVSGTKTELIERLRAYQDQ [A5W], the abundance fitness is reported as -0.655 ± 0.085. Work on GALPAALDDMKVAELKQELKLRSLPVSGTKTELIERLRAYQDQ [N6A] yielded an abundance fitness of -0.229 ± 0.084. With GALPADLDDMKVAELKQELKLRSLPVSGTKTELIERLRAYQDQ [N6D] the abundance fitness was -0.189 ± 0.1. GALPAELDDMKVAELKQELKLRSLPVSGTKTELIERLRAYQDQ [N6E] gave an abundance fitness of -0.007 ± 0.071. Variant GALPAFLDDMKVAELKQELKLRSLPVSGTKTELIERLRAYQDQ [N6F] has an abundance fitness of -0.431 ± 0.1. GALPAGLDDMKVAELKQELKLRSLPVSGTKTELIERLRAYQDQ [N6G] showed an abundance fitness of 0.044 ± 0.074. In the case of GALPAHLDDMKVAELKQELKLRSLPVSGTKTELIERLRAYQDQ [N6H], the abundance fitness is reported as -0.661 ± 0.24. GALPAKLDDMKVAELKQELKLRSLPVSGTKTELIERLRAYQDQ [N6K] showed an abundance fitness of 0.157 ± 0.074. GALPALLDDMKVAELKQELKLRSLPVSGTKTELIERLRAYQDQ [N6L] gave an abundance fitness of -0.124 ± 0.072. With GALPAMLDDMKVAELKQELKLRSLPVSGTKTELIERLRAYQDQ [N6M] the abundance fitness was 0.135 ± 0.072. GALPAPLDDMKVAELKQELKLRSLPVSGTKTELIERLRAYQDQ [N6P] showed an abundance fitness of -1.5 ± 0.12. GALPAQLDDMKVAELKQELKLRSLPVSGTKTELIERLRAYQDQ [N6Q] gave an abundance fitness of -0.212 ± 0.092. Work on GALPARLDDMKVAELKQELKLRSLPVSGTKTELIERLRAYQDQ [N6R] yielded an abundance fitness of -0.048 ± 0.071. Work on GALPAVLDDMKVAELKQELKLRSLPVSGTKTELIERLRAYQDQ [N6V] yielded an abundance fitness of -0.127 ± 0.1. In the case of GALPAWLDDMKVAELKQELKLRSLPVSGTKTELIERLRAYQDQ [N6W], the abundance fitness is reported as -0.76 ± 0.13. Variant GALPANADDMKVAELKQELKLRSLPVSGTKTELIERLRAYQDQ [L7A] has an abundance fitness of -0.097 ± 0.062. For GALPANCDDMKVAELKQELKLRSLPVSGTKTELIERLRAYQDQ [L7C], the abundance fitness was -0.157 ± 0.14. Work on GALPANDDDMKVAELKQELKLRSLPVSGTKTELIERLRAYQDQ [L7D] yielded an abundance fitness of -1.17 ± 0.17. With GALPANEDDMKVAELKQELKLRSLPVSGTKTELIERLRAYQDQ [L7E] the abundance fitness was -0.924 ± 0.096. With GALPANGDDMKVAELKQELKLRSLPVSGTKTELIERLRAYQDQ [L7G] the abundance fitness was -0.305 ± 0.064. GALPANHDDMKVAELKQELKLRSLPVSGTKTELIERLRAYQDQ [L7H] showed an abundance fitness of -0.87 ± 0.17. With GALPANQDDMKVAELKQELKLRSLPVSGTKTELIERLRAYQDQ [L7Q] the abundance fitness was -0.763 ± 0.14. For GALPANRDDMKVAELKQELKLRSLPVSGTKTELIERLRAYQDQ [L7R], the abundance fitness was -0.614 ± 0.077. In the case of GALPANSDDMKVAELKQELKLRSLPVSGTKTELIERLRAYQDQ [L7S], the abundance fitness is reported as -0.47 ± 0.091. GALPANTDDMKVAELKQELKLRSLPVSGTKTELIERLRAYQDQ [L7T] gave an abundance fitness of -0.136 ± 0.12. Work on GALPANVDDMKVAELKQELKLRSLPVSGTKTELIERLRAYQDQ [L7V] yielded an abundance fitness of -0.199 ± 0.077. GALPANWDDMKVAELKQELKLRSLPVSGTKTELIERLRAYQDQ [L7W] showed an abundance fitness of -0.429 ± 0.077. With GALPANLADMKVAELKQELKLRSLPVSGTKTELIERLRAYQDQ [D8A] the abundance fitness was 0.19 ± 0.065. Work on GALPANLCDMKVAELKQELKLRSLPVSGTKTELIERLRAYQDQ [D8C] yielded an abundance fitness of 0.176 ± 0.25. GALPANLEDMKVAELKQELKLRSLPVSGTKTELIERLRAYQDQ [D8E] showed an abundance fitness of 0.261 ± 0.077. GALPANLGDMKVAELKQELKLRSLPVSGTKTELIERLRAYQDQ [D8G] gave an abundance fitness of 0.183 ± 0.063. Variant GALPANLKDMKVAELKQELKLRSLPVSGTKTELIERLRAYQDQ [D8K] has an abundance fitness of -0.018 ± 0.077. For GALPANLMDMKVAELKQELKLRSLPVSGTKTELIERLRAYQDQ [D8M], the abundance fitness was -0.125 ± 0.085. With GALPANLNDMKVAELKQELKLRSLPVSGTKTELIERLRAYQDQ [D8N] the abundance fitness was -0.009 ± 0.38. For GALPANLQDMKVAELKQELKLRSLPVSGTKTELIERLRAYQDQ [D8Q], the abundance fitness was 0.146 ± 0.15. For GALPANLRDMKVAELKQELKLRSLPVSGTKTELIERLRAYQDQ [D8R], the abundance fitness was 0.046 ± 0.06. GALPANLSDMKVAELKQELKLRSLPVSGTKTELIERLRAYQDQ [D8S] gave an abundance fitness of -0.124 ± 0.12. Work on GALPANLTDMKVAELKQELKLRSLPVSGTKTELIERLRAYQDQ [D8T] yielded an abundance fitness of -0.129 ± 0.095. In the case of GALPANLVDMKVAELKQELKLRSLPVSGTKTELIERLRAYQDQ [D8V], the abundance fitness is reported as 0.048 ± 0.075. With GALPANLWDMKVAELKQELKLRSLPVSGTKTELIERLRAYQDQ [D8W] the abundance fitness was 0.185 ± 0.071. Variant GALPANLDAMKVAELKQELKLRSLPVSGTKTELIERLRAYQDQ [D9A] has an abundance fitness of 0.203 ± 0.11. GALPANLDCMKVAELKQELKLRSLPVSGTKTELIERLRAYQDQ [D9C] showed an abundance fitness of 0.014 ± 0.1. Work on GALPANLDEMKVAELKQELKLRSLPVSGTKTELIERLRAYQDQ [D9E] yielded an abundance fitness of 0.273 ± 0.077. For GALPANLDGMKVAELKQELKLRSLPVSGTKTELIERLRAYQDQ [D9G], the abundance fitness was 0.13 ± 0.062. With GALPANLDKMKVAELKQELKLRSLPVSGTKTELIERLRAYQDQ [D9K] the abundance fitness was 0.404 ± 0.15. GALPANLDLMKVAELKQELKLRSLPVSGTKTELIERLRAYQDQ [D9L] showed an abundance fitness of -0.026 ± 0.07. With GALPANLDMMKVAELKQELKLRSLPVSGTKTELIERLRAYQDQ [D9M] the abundance fitness was 0.019 ± 0.18. In the case of GALPANLDNMKVAELKQELKLRSLPVSGTKTELIERLRAYQDQ [D9N], the abundance fitness is reported as 0 ± 0.18. With GALPANLDPMKVAELKQELKLRSLPVSGTKTELIERLRAYQDQ [D9P] the abundance fitness was -0.416 ± 0.25. Variant GALPANLDQMKVAELKQELKLRSLPVSGTKTELIERLRAYQDQ [D9Q] has an abundance fitness of 0.085 ± 0.077. In the case of GALPANLDRMKVAELKQELKLRSLPVSGTKTELIERLRAYQDQ [D9R], the abundance fitness is reported as 0.135 ± 0.054. With GALPANLDSMKVAELKQELKLRSLPVSGTKTELIERLRAYQDQ [D9S] the abundance fitness was 0.159 ± 0.065. With GALPANLDTMKVAELKQELKLRSLPVSGTKTELIERLRAYQDQ [D9T] the abundance fitness was 0.243 ± 0.11.
